Test results taken from paper PMC4943160.
Residue numbers refer to the chain shown, from its start.

Experiments:
[1] = target: T1, rCosRC218S C218S (Campylobacter jejuni NCTC 11168) (UniProt Q0PBF4); test: EMSA
T1 sequence: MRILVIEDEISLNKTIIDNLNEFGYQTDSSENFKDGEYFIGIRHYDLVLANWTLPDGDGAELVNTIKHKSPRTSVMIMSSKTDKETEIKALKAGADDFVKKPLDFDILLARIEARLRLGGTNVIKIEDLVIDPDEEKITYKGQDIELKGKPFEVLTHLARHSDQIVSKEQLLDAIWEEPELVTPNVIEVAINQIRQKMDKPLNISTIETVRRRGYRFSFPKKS

[2] = target: T2, rCosRWT (Campylobacter jejuni NCTC 11168) (UniProt Q0PBF4); test: EMSA
T2 sequence: T1 sequence with S218C

Sequence	binding [1]	binding [2]
GCACAACACCTAAAGCTAAAATAGTATTTTTTTGAAATAATTTCATGGTTTTGCCTTGAAAAATTAAATTAAAAATTGTAATATTTATTACAGAAATTTTTGGCTAATTATATCTTAATTTTGGTTAATAAAATTATTTTTTAAGCTTTGGAGCTATTGATTCCATTTAG (double strand) [81-176 cmeABC promoter]	binds	
AATCCTTGCTTGCATTTTCGAAAGTTGCCTTAGCCATTAAAGCTTGTCCGTAAGCTGAATCAACACTAGCTTTAAATTTATCTTGTTCTATAATAAATAATGTTTGTCCTTTTTTTACCTTATCTCCAGCTTTAAAAAGTTTATTTACTATTACGCCGCTAACTTGAGGTT (double strand) [cmeA internal fragment]		no binding
GCACAACACCTAAAGCTAAAATAGTATTTTTTTGAAATAATTTCATGGTTTTGCCTTGAAAAATTAAATTAAAAATTGTAATTTTTATTACAAAAATTTTTGGCTAATTATATCTTAATTTTGGTTAATAAAATTATTTTTTAAGCTTTGGAGCTATTGATTCCATTTAG (double strand) [11168 cmeABC promoter]		binds
